Results from a protein production outcome set (Wang et al. 2014).

assay: label from the status in PepcDB records

Row | Sequence | protein production
1 | MSYKVEAVPDSYAALGEGPHWDVDRQSLYYVDLESAGINRYDFKQNKVYRAKIEGEIFASFILPVENKPQEFAVGCGLRTVIVQWDGVSAVAKVTRTLFEVQPDLKENRLNDAKTDPNGRFYGGTMADSGDIFTQWKGELYSWQAGGQPNAIRSKVGISNGLAWDVKAKKFYFIDTNNHEVLAYDYNQSTGAVSNPKVIFDLRKIRPEGPLFPDGMTVDTDGNIYVATFNGGTVFKVNPSTGKILLEIKIPTTQITSVAFGGPNLDILYVTTANKFDQPKPAGTTFQVTGLNAKGYAGVNLKI | failed
2 | MSYLDTATDLPNQTLFLEYLNIALSNARRHHAQVGVLLCQINNWSDLKRKRGDAVANAFLQEAGQKLKSNLRNGDIVSRWDKDEFIFLVSKVQDTSSLLGIAQRLMKPVLAPVTAGGRPFQPEITYGVALYPVDGEQVNDLIGHIRENLQQLLPQPTLEHHHHHH | failed
3 | MSYLGGYGLIYLVTIVGYFILASFLGSFQLSSDLFNFEFYSSLSGISALMVWAFWLFLIYLNIILVVRRLHDLNKSGWMGLLLFIPVVQFFFMLYLLLASGTAGTNQYGPVRPSTFIEKLMAWLILIAILISLISTVGFFYYFSGTDTIQTPTQILQKGTEYF | failed
4 | MSYRTISAEEAVMAIKSGDRVFLHTAAATPLRLIEAMVSRASHLRDVEIVSLHTEGDAPYVRPEFQESFRLNAFFVGRNVRSAVQCGYADAIPIFLSDVPAMFYDGVMPLDVALVHVSPPDRHGYCSLGVSVDATRAAVHTARHVIAQVNPNMPRTHGEGLLHVSKIHSLVEVDDPLPETPRHELTDVERQIGQHIASIVEDGATLQMGIGAIPDATLAALTNHKDLGIHSEMFSDGVVDLVEKGVVNGRCKKTHNEIIVASFLVGTRKLYDFVDDNPLVEMFGSDYVNDTKEIRKNPKVTAINSAIEIDMTGQVCADSIGTRHFSGVGGQMDFIRGAALSPGGKPIIALPATTRKGESRIVTQLKPGAGVVTTRAHVQYVVTEYGIVNLHGKNLRQRAEALATIAHPDFREEILRQAHELYGRKSNCLID | failed
5 | MSYSTFALCHWARDRQRGRKTVADMVHRMTQATARVIGLEDRGELAVGKRADINVIDLAQLALRPPQVCHDLPAGGRRLIQRATGYSLTMLAGEIVLRDDEPLEHHHHHH | not failed
6 | MSYTPMSDLGQQGLFDITRTLLQQPDLASLCEALSQLVKRSALADNAAIVLWQAQTQRASYYASREKDTPIKYEDETVLAHGPVRSILSRPDTLHCSYEEFCETWPQLAAGGLYPKFGHYCLMPLAAGGHIFGGCEFIRYDER | failed
7 | MTAAPLVSVLLPVYNAGPYLAAALGSILRQDYGRLEVIAIDDGSSDNSLEILERYRQADSRVSIISRENRGLVATLNEGLAAAQGELVARMDADDVAYPWRLSRQVALFEQRPELGFCGAGVDMLIRGRIARGRPDPVFRFGRMPILAMFFTIFMHPTVVYNRKVIEDADLHYDPTYRHAEDFDLFGRLAARYPAAMMPENLLVYRVHQASVTSRHGKEMRRTHLRIVAENLEREGLAEATRDLRDIGEAVSFDTVTRAADFIVALEERIRSLPAETRPSFEAGALNLFYFLYQLVADERQPPLTHELLRRTAKWNAIRRREKYALRPGAWAPWLSLASLAAGKQADAVEYFFKSAPAAAVLASHQVG | failed
8 | MTAASETFDVVVVGAGPAGGQCARRLAQAGRTVLLVDQLKTWTDHDFSSGGTPLETLDRFQLPDRVIGSRWSQLRVVTTREDHTWKSARSLGCVLDFAALRQFLAEETTTHGGSVRLGWQYRDRQQLTDGRWQIRFRDRLTSSDRWVTSRAVVDATGSARKVIYTAAEPRPDYLRGVGIEYLIEVPETVYQRFADALHFYLGHHWLPKGYSWIFPMQSGRLKVGACWFHGDHRFLKPDQPLRHYIDLLLTEQVQCPDYRLVDVHGAAIDYSGDRCDRHVQASILGIGDAVSAINFLGGEGIRHGLESADRAAQVLDAWLQGTVPDLSSYEQQIRRRFDRLWTLSLRLGMKKYLQDSDAKIDRIVRWCCALSTDDLMAILFDYRFQRLGRRLGRFFWLSVMTRLRLRWQRWRRPSHVA | failed
9 | MTADLFDGLDDAPRRQDIAPGAALLSGFARANERELLAAIDAVVARAPFRHMMTPGGHTMSVAMTSCGSVGWVTDRRGYRYSPNDPDSATPWPKMPAVLRDLAQRAAADVGFAGFDPDACLINRYVPGAKMALHQDKDEADFSAPIVSVSLGLPAIFQFGGMARSDKPRRYELRHGDVLVWGGPSRLVYHGVLTLKDGEHPLLGRQRINLTFRKAL | failed
10 | MTAEDGAAYIAFLADPQPSAQWVGRRGTPRDRHDWRPFEGPLSPASIRHARKILSTLYGCLIEQGHARANPFEVLSLPTGGDAPRIQVARSFTEPQWRFLLRHVSSLPADDPRAARLTFMLHLAHASGLRISEQAVATVGHLTWSGHWTLAVPGPKPRQIPLPEAVIDALRGHLAARGLGRGFESLPAATPLIGRVKTGDEGDALSVAQIGAIWKRYFAQAATLAGGEDDAAQLAQASAHWMRHTAGAHAVARGVALEVVQQQLGHASLDTTSMYVLAA | failed
11 | MTAFAAASPRAAVRTGFDGLAISVATRAMMKNLDQNFDAILITGPTASGKSALALRLARERNGVVINADSMQVYDTLRVLTARPSDHEMEGVPHRLYGHVPAGSAYSTGEWLRDISGLLSDLRGEGRFPVIVGGTGLYFKALTGGLSDMPAIPDDLREGLRARLIEEGAAKLHAELVSRDPSMAQMLQPGDGQRIVRALEVLEATGKSIRDFQRASGPMIIDPERAQKFIVLPERPVLHDRINRRFEAMMDSGAVEEVQALLALNLAPDATAMKAIGVAQIADMLTGRMGAAEVIEKSAAATRQYAKRQMTWFRNQMGDDWTRIQPLEHHHHHH | failed
12 | MTAIAPVITIDGPSGAGKGTLCKAMAEALQWHLLDSGAIYRVLALAALHHHVDVASEDALVPLASHLDVRFVSTNGNLEVILEGEDVSGEIRTQEVANAASQVAAFPRVREALLRRQRAFRELPGLIADGRDMGTVVFPDAPVKIFLDASSEERAHRRMLQLQEKGFSVNFERLLAEIKERDDRDRNRAVAPLVPAADALVLDSTTLSIEQVIEKALQYARQKLALA | failed
13 | MTAIPLTFYLGLAALLFSIGLYGVMTHKSGIRMIMCIELMLNSANLNLVAFSSYTDTLNGQVFAIFSIALAAAEAAVGFAIFMAIYRMHDKINLDELNILRW | failed
14 | MTAIRFDHVDVIFGTHTKEALKLLDQGLGRAEILKRTGQVLGVEDACLDVNRGEICVLMGLSGSGKSSLLRCINGLNKVSRGKLLIEHEGSQVDIANCSPATLKAMRTKRIAMVFQKFALMPWLTVAENVGFGLEMQGRPAAERKKLIDEKLELVGLSQWRDKRPDSLSGGMQQRVGLARALAMDGDILLMDEPFSALDPLIRQQLQDELLVLQRQLHKTIVFVSHDLDEALKIGTRIAIMKDGRIIQHGKPEEIVLSPADDYVRTFVAHTNPLNVLCGQSLMRGLDQCIRQNDEICFDQGRDCWIGLSEGDVLKGARQGSNVIDLQRWRQGDPVEKLRREPTLVDVSIRMRDALQIRYQTGHKLVLQEQDRVVGVLGDSELYHALLGKN | failed
15 | MTALPLSAVTVVSVCYNSDRLIRDLVTAIPDETPIILVDNGHTNTFADLPPHRNVIIVKLDHNLGFGRGCNAGADVAQTPWILFLNPDARLNPGAIEGLLQAAAQYPSAIAFNPRIYNEDGSPYFKRRSWLLPRQHYMKKGWPSADAVVPVLSGAALFVSKKSFDYIGGFDPSIFMYHEDDDLSLRLSALGELRFVRNSTVVHFAGYSSGRSPEIARFKAYHMAQSKIYAGQKHHRPFAKTSTLLQGCLLLLSPHVFFSARRRAKALGFLHGALAKIWSELLNAASTSSQKKTLEHHHHHH | not failed
16 | MTAPTLSRAAMEKVIRTYYDGCNEADEAKMIACFVPEAVHYFPAGMYGGAFRGAAQIAHRWRTAVETLGSYWTIDALVIDAETAEAAIEWTHFKTNQDKVLRGAECVEFDRASGLIREIRAFYASPQAEGIARLELGDFDYAGRGYRVTSPRKPA | not failed
17 | MTASTAPQTEPHKTSAPESGPVMLLVATIKGAWFLASDPARRTWELRGPVFLGHTIHHIVQDPREPERMLMAARTGHLGPTVFRSDDGGGNWTEATRPPAFNKAPEGETGRVVDHVFWLTPGHASEPGTWYAGTSPQGLFRSTDHGASWEPVAGFNDHPMRRAWTGGEQDGTPDGPKMHSILVDPRDPKHLYIGMSSGGVFESTDAGTDWKPLNRGCAANFLPDPNVEFGHDPHCVVQHPAAPDILYQQNHCGIYRMDRREGVWKRIGDAMPREVGDIGFPIVVHQRDPRTVWVFPMDGSDVWPRVSPGGKPAVYVTRDAGESWQRQDRGLPTDQAWLTVKRQAMTADAHAPVGVYFGTTGGEIWASADEGEHWQCIASHLPHIYAVQSARPV | not failed
18 | MTATIPPLTPTVTPSNPDRPIADLKLQDIIKTLPKECFEKKASKAWASVLITLGAIAVGYLGIIYLPWYCLPITWIWTGTALTGAFVVGHDCGHRSFAKKRWVNDLVGHIAFAPLIYPFHSWRLLHDHHHLHTNKIEVDNAWDPWSVEAFQASPAIVRLFYRAIRGPFWWTGSIFHWSLMHFKLSNFAQRDRNKVKLSIAVVFLFAAIAFPALIITTGVWGFVKFWLMPWLVYHFWMSTFTIVHHTIPEIRFRPAADWSAAEAQLNGTVHCDYPRWVEVLCHDINVHIPHHLSVAIPSYNLRLAHGSLKENWGPFLYERTFNWQLMQQISGQCHLYDPEHGYRTFGSLKKV | failed
19 | MTCHNAAGALEPTGSAAKTLPDGLHALMTAEELAFFARFGRLREVSAGQSLFERGAVGTQMYIVVSGQIDLDFGEDLMLKHLGPGEFFGELGLLIGDHARSAGASASTDSRLIELAHDDFQRLVDQDPSMVAHFLRRSIVRVVNNEQLLIRQLRRRNHDLEAALDNLYVTSHQLNHTEELSRTDELTGLHNRRGLALHLQECRRAGHVPGVGLILIDCDRFKRINDEFGHLAGDRVLQNVAHALRSVIAEGDLACRLGGDEFCVLVAQGTSELVHHIGECIVRAVEARLCNGQGEQGCSVSVGSCMIDADAAWNDWYTLADSALYEAKRQGGNVLCMQETLALDQPPASGHR | failed
20 | MTCRPALSDSHPPEPGTPSSPSFGVCGDRPLLRERGQHEVFCGLAGIIWLHRKIQDAFFLIIGSRTCAHLMQSAAGVMIFAEPRFATAVLEEQDLAGLADAQDEIDRVVARLLERRPDIRLLFLVGSCPSEVIKIDLQRAALRLSKVHGARTRVVSYSGSGLETTFTQGEDACLAALVPDLPSAAADEAPDLLVVGTLPDVVEDQFGRLFAEMGIARTAFLPPRRSTALPAIGPKTRFLLAQPFLGDTARCLEARGARRLAAPFPFGVEGTTGWLAAAAQAFGVDDLTFRRVTAPGRERAARALERQRATLEGKRVFFFPESQLEIPLARFLVRELGMEAIEIGTPYLHRAHLAEELALLPATALLSEGQDVDRQLDRCRAARPDLVVCGLGLANPLEAEGITTKWSIELVFSPIHGYEQAGDLAELFARPLLRRALLKV | failed
21 | MTDAHTVCPKFESAFQLLGKRWTGLIINVLLTGPKRFKQVAAEIPQMSDRVLAERLKELEEMDICLRQVYPETPVRIEYELTEKGKALQEVMLEVQCWADKWVEVPN | failed
22 | MTDDKKIRAAIVGYGNIGRYALQALREAPDFEIAGIVRRNPAEVPFELQPFRVVSDIEQLESVDVALVCSPSREVERTALEILKKGICTADSFDIHDGILALRRSLGDAAGKSGAAAVIASGWDPGSDSVVRTLMQAIVPKGITYTNFGPGMSMGHTVAVKAIDGVKAALSMTIPLGTGVHRRMVYVELLPGHNLEEVSAAIKADEYFVHDETHVIQVDEVDALIDMGHGVRMVRKGVSGSTQNQRMSFDMEINNPALTGQVLVCAARAAMRQQPGAYTLQEIPVIDLLPGDREQWIGKLC | not failed
